Laboratory results published in the supplement of paper PMC9233669.
This sample holds only a part of the variants without activity.

Experiments:
[1] = test system: biotinyl-Met-oxazolone; test: self-aminoacylation, catalytic enhancement (BMO) (fold over background); higher = more active; k-Seq, kA / k0A0; sequences stand for … in GGGAAUGGAUCCACAUCUACGAAUUC…UUCACUGCAGACUUGACGAAGCUG
Summary of the method: (§1)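 Mutagenized RNA pools (0.43 μM; 21-nt variable region) were treated with 2–1250 μM of each biotinyl-aminoacyl-oxazolone. Conditions were 50 μL HEPES/NaCl/KCl/MgCl2/CaCl2 buffer, 5% acetonitrile, pH 6.9–7.0, room temperature, 90 minutes. Catalytic enhancement, the median kA relative to the uncatalyzed rate, was derived from streptavidin capture, qPCR and Illumina sequencing.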

[2] = test system: biotinyl-Val-oxazolone; test: self-aminoacylation, catalytic enhancement (BVO) (fold over background); higher = more active; k-Seq, kA / k0A0; sequences stand for … in GGGAAUGGAUCCACAUCUACGAAUUC…UUCACUGCAGACUUGACGAAGCUG
Summary of the method: as §1

[3] = test system: biotinyl-Phe-oxazolone; test: self-aminoacylation, catalytic enhancement (BFO) (fold over background); higher = more active; k-Seq, kA / k0A0; sequences stand for … in GGGAAUGGAUCCACAUCUACGAAUUC…UUCACUGCAGACUUGACGAAGCUG
Summary of the method: as §1

[4] = test system: biotinyl-Leu-oxazolone; test: self-aminoacylation, catalytic enhancement (BLO) (fold over background); higher = more active; k-Seq, kA / k0A0; sequences stand for … in GGGAAUGGAUCCACAUCUACGAAUUC…UUCACUGCAGACUUGACGAAGCUG
Summary of the method: as §1

[5] = test system: biotinyl-Trp-oxazolone; test: self-aminoacylation, catalytic enhancement (BWO) (fold over background); higher = more active; k-Seq, kA / k0A0; sequences stand for … in GGGAAUGGAUCCACAUCUACGAAUUC…UUCACUGCAGACUUGACGAAGCUG
Summary of the method: as §1

[6] = test system: biotinyl-Ile-oxazolone; test: self-aminoacylation, catalytic enhancement (BIO) (fold over background); higher = more active; k-Seq, kA / k0A0; sequences stand for … in GGGAAUGGAUCCACAUCUACGAAUUC…UUCACUGCAGACUUGACGAAGCUG
Summary of the method: as §1

| Sequence | self-aminoacylation [1] | self-aminoacylation [2] | self-aminoacylation [3] | self-aminoacylation [4] | self-aminoacylation [5] | self-aminoacylation [6] |
| --- | --- | --- | --- | --- | --- | --- |
| GUUCACCUAGGUAAUCGGGUG [Fam2.2 aminoacylation ribozyme variant] | 2.74 | 2.12 | 9.25 | 2.92 | 3.83 | 2.38 |
| GUUCACCUAGGUCAGCGGGUG [Fam2.2 aminoacylation ribozyme variant] | 4.02 | 3.23 | 26.1 | 4.21 | 4.42 | 2.92 |
| GUUCACCUAGGUCAUCAGGUG [Fam2.2 aminoacylation ribozyme variant] | 1.09 | 1.35 | 2.03 | 1.32 | 1.06 | 1.23 |
| GUUCACCUAGGUCAUCGAGUG [Fam2.2 aminoacylation ribozyme variant] | 11.4 | 6.89 | 27.6 | 15.7 | 6.52 | 8.09 |
| GUUCACCUAGGUCAUCGCGUG [Fam2.2 aminoacylation ribozyme variant] | 10.5 | 6.96 | 96.1 | 15 | 10.6 | 6.72 |
| GUUCACCUAGGUCAUCGGCUG [Fam2.2 aminoacylation ribozyme variant] | 1.49 | 1.98 | 7.17 | 2.04 | 1.97 | 1.67 |
| GUUCACCUAGGUGAUCGGGUG [Fam2.2 aminoacylation ribozyme variant] | 3.88 | 3.88 | 21 | 4.25 | 4.84 | 3.88 |
| GUUCACCUAUGUCAUCGGGUG [Fam2.2 aminoacylation ribozyme variant] | 4.03 | 3.31 | 21.4 | 5.63 | 4.3 | 3.1 |
| GUUCAGCUAGGUCAUCGGGUG [Fam2.2 aminoacylation ribozyme variant] | 3.72 | 4.11 | 25 | 5.08 | 5.82 | 3.97 |
| GUUCGCCUAGGUCAUCGGGUG [Fam2.2 aminoacylation ribozyme variant] | 18.9 | 10.2 | 121 | 22.8 | 14.9 | 9.85 |
| GUUCUUCAAACAAUCGGUCUG [Fam1A.1 aminoacylation ribozyme variant] | 1 | 0.824 | 3.63 | 0.983 | 2.39 | 0.863 |
| UAGUCUGCUAAUAGUCGCAAG [Fam3.1 aminoacylation ribozyme variant] | 2.17 | 1.81 | 32.7 | 1.83 | 9.92 | 2.01 |
| UAGUUUGCUAAUAGCCGCAAG [Fam3.1 aminoacylation ribozyme variant] | 0.885 | 1.05 | 2.71 | 1.25 | 1.88 | 1.22 |
| UAGUUUGCUAAUAGUCCCAAG [Fam3.1 aminoacylation ribozyme variant] | 0.851 | 0.864 | 2.1 | 0.805 | 1.37 | 1.03 |
| UAGUUUGCUAAUAGUCGCAAA [Fam3.1 aminoacylation ribozyme variant] | 1.75 | 1.38 | 1.58 | 1.53 | 2.06 | 1.95 |
| UAGUUUGCUAAUAGUCGCCAG [Fam3.1 aminoacylation ribozyme variant] | 1.69 | 1.2 | 1.74 | 1.7 | 1.16 | 1.47 |
| UAGUUUGCUAAUAGUGGCAAG [Fam3.1 aminoacylation ribozyme variant] | 0.891 | 0.688 | 1.63 | 0.753 | 0.543 | 0.819 |
| UAGUUUGCUAAUAUUCGCAAG [Fam3.1 aminoacylation ribozyme variant] | 1.22 | 1.26 | 1.71 | 1.04 | 1.21 | 1.3 |
| UAGUUUGCUACUAGUCGCAAG [Fam3.1 aminoacylation ribozyme variant] | 1.24 | 1.1 | 1.57 | 1.23 | 1.23 | 1.42 |
| UAGUUUGCUUAUAGUCGCAAG [Fam3.1 aminoacylation ribozyme variant] | 1.84 | 1.54 | 2.08 | 1.59 | 1.81 | 1.53 |
| UAUUUUGCUAAUAGUCGCAAG [Fam3.1 aminoacylation ribozyme variant] | 1.65 | 1.52 | 1.99 | 1.31 | 1.47 | 1.75 |
| UCACACUCCAAGCAAUCGGUC [Fam1B.1 aminoacylation ribozyme variant] | 0.825 | 1.13 | 2.4 | 0.792 | 1.44 | 0.885 |
| UCACACUUCAAGAAAUCGGUC [Fam1B.1 aminoacylation ribozyme variant] | 0.819 | 0.888 | 7.38 | 0.906 | 6.06 | 0.947 |
| UCACACUUCAAGCAAACGGUC [Fam1B.1 aminoacylation ribozyme variant] | 0.682 | 0.792 | 0.679 | 0.506 | 0.586 | 0.639 |
| UCACACUUCAAGCAAUCGAUC [Fam1B.1 aminoacylation ribozyme variant] | 0.501 | 0.808 | 1.49 | 0.468 | 0.732 | 0.589 |
| UCACACUUCAAGCAAUCGGUA [Fam1B.1 aminoacylation ribozyme variant] | 1.1 | 1.12 | 1.13 | 1.04 | 1.49 | 0.993 |

| Sequence | self-aminoacylation [1] | self-aminoacylation [2] | self-aminoacylation [3] | self-aminoacylation [4] | self-aminoacylation [5] | self-aminoacylation [6] |
| --- | --- | --- | --- | --- | --- | --- |
| UCACACUUCAAGCAAUCGUUC [Fam1B.1 aminoacylation ribozyme variant] | 0.602 | 0.792 | 1.45 | 0.611 | 0.608 | 0.696 |
| UCACACUUCACGCAAUCGGUC [Fam1B.1 aminoacylation ribozyme variant] | 0.81 | 1.21 | 0.767 | 0.873 | 0.908 | 1.03 |
| UCACGCUUCAAGCAAUCGGUC [Fam1B.1 aminoacylation ribozyme variant] | 1.56 | 1.7 | 84.1 | 2.46 | 41.6 | 1.32 |
| UCCCACUUCAAGCAAUCGGUC [Fam1B.1 aminoacylation ribozyme variant] | 1.46 | 1.73 | 37 | 1.59 | 22.3 | 1.28 |
| UCUCACCUAGGUCAUCGGGUG [Fam2.2 aminoacylation ribozyme variant] | 3.73 | 3.09 | 16.1 | 3.81 | 3.84 | 2.33 |
| UCUCACUUCAAGCAAUCGGUC [Fam1B.1 aminoacylation ribozyme variant] | 1.15 | 1.35 | 44.5 | 1.71 | 21.5 | 1.23 |
| UGACACUUCAAGCAAUCGGUC [Fam1B.1 aminoacylation ribozyme variant] | 1.33 | 1.37 | 21.5 | 1.89 | 14.5 | 1.84 |
| UUACGUCAAACAAUCGGUCUG [Fam1A.1 aminoacylation ribozyme variant] | 1.99 | 1.68 | 6.37 | 1.58 | 2.38 | 1.98 |
| UUACUUCAAACAAUCGAUCUG [Fam1A.1 aminoacylation ribozyme variant] | 0.711 | 0.719 | 1.8 | 0.824 | 0.866 | 0.852 |
| UUACUUCAAACAAUCGGGCUG [Fam1A.1 aminoacylation ribozyme variant] | 1.93 | 1.66 | 8.04 | 2.22 | 7.54 | 1.76 |
| UUACUUCAAACAAUCGGUUUG [Fam1A.1 aminoacylation ribozyme variant] | 1.48 | 1.24 | 31.5 | 1.86 | 20.3 | 1.59 |
| UUACUUCAAAGAAUCGGUCUG [Fam1A.1 aminoacylation ribozyme variant] | 1.24 | 1.08 | 2.71 | 1.57 | 2.03 | 1.34 |
| UUACUUGAAACAAUCGGUCUG [Fam1A.1 aminoacylation ribozyme variant] | 1.32 | 1.03 | 1.52 | 1.11 | 0.889 | 1.15 |
| UUCCUUCAAACAAUCGGUCUG [Fam1A.1 aminoacylation ribozyme variant] | 0.806 | 0.647 | 5.13 | 0.937 | 4.06 | 0.784 |
| UUGUUUGCUAAUAGUCGCAAG [Fam3.1 aminoacylation ribozyme variant] | 1.33 | 1.42 | 9.39 | 1.24 | 3.52 | 1.41 |
| UUUACCCUGAUCAUCGAGUGA [Fam2.1 aminoacylation ribozyme variant] | 8.08 | 4.05 | 23.3 | 7.11 | 9.79 | 3.92 |
| UUUACCCUGCUCAUCGAGUGA [Fam2.1 aminoacylation ribozyme variant] | 2.03 | 1.54 | 8.11 | 2.15 | 3.13 | 1.28 |
| UUUACCCUGGUCAGCGAGUGA [Fam2.1 aminoacylation ribozyme variant] | 5.62 | 2.96 | 16.3 | 5.43 | 7.06 | 3.46 |
| UUUACCCUGGUCAUAGAGUGA [Fam2.1 aminoacylation ribozyme variant] | 5.18 | 3.07 | 27.7 | 5.87 | 7.54 | 2.89 |
| UUUACCCUGGUCAUCGAGUAA [Fam2.1 aminoacylation ribozyme variant] | 13.9 | 5.3 | 30.5 | 11.7 | 11.8 | 4.45 |
| UUUACCCUGGUCAUCGAGUGA [Fam2.1 aminoacylation ribozyme variant] | 68.9 | 27 | 428 | 60.9 | 71.3 | 24.6 |
| UUUACCCUGGUCAUCGGGUGA [Fam2.1 aminoacylation ribozyme variant] | 37.3 | 16.7 | 221 | 37.2 | 40.3 | 15.2 |
| UUUACCCUGGUGAUCGAGUGA [Fam2.1 aminoacylation ribozyme variant] | 6.47 | 3.51 | 28.6 | 6.55 | 7.87 | 3.39 |
| UUUAGCCUGGUCAUCGAGUGA [Fam2.1 aminoacylation ribozyme variant] | 5.59 | 4.28 | 21.9 | 5.82 | 7 | 4.42 |
| UUUAUCCUGGUCAUCGAGUGA [Fam2.1 aminoacylation ribozyme variant] | 8.6 | 4.7 | 10.2 | 9.68 | 11.3 | 5.25 |
